# In patent US20250177530A1 (UNIVERSITY OF PITTSBURGH OF THE COMMONWEALTH SYSTEM OF …, published 2025):
# T1: recombinant human ENPP1 extracellular domain fused with a His6-FLAG tag (human)
# T1 construct: Expressed in Expi293 cells and purified on nickel resin; It was coated at 50 ng/well in the ELISAs and captured in biotinylated form on streptavidin biosensors in BLItz; also called ENPP1-His; rhENPP1
# T1 sequence (P22413 98-925, looked up): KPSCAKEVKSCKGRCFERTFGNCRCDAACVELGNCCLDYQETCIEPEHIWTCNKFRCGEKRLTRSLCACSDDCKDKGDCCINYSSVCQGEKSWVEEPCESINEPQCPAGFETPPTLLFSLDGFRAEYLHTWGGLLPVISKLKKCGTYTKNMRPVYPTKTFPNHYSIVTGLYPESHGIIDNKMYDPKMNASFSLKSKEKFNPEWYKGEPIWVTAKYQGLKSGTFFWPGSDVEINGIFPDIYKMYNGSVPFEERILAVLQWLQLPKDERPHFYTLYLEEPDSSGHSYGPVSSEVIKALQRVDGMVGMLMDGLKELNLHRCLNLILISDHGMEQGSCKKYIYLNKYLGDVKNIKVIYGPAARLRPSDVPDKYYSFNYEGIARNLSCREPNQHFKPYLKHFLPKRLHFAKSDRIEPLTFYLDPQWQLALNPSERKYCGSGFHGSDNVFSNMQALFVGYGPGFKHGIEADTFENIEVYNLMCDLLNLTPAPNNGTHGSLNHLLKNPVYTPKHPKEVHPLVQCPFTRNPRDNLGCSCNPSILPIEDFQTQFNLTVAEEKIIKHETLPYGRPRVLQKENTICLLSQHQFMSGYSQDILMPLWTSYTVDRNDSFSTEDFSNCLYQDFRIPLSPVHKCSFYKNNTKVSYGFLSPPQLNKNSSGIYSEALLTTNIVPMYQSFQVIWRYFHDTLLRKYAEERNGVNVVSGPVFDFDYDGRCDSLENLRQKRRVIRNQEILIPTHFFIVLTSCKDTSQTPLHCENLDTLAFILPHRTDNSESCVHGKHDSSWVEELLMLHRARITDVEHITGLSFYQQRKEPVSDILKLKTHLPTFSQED
# B1: Fab 17 (Fab, V domains shown)
# VH: QVQLVESGGGLVKPGGSLRLSCAASGFTFSDYYMSWIRQAPGKGLEWVSYISSSGSTIYYADSVKGRFTISRDNAKNSLYLQMNSLRAEDTAVYYCAREVYYYDSSGYYTYYFDYWGQGTLVTVSS
# VL: DIQMTQSPSSLSASVGDRVTITCRASQSISSYLNWYQQKPGKAPKLLIYAASSLQSGVPSRFSGSGSGTDFTLTISSLQPEDAATYYCQQYDTFPLTFGGGTKVEIKR
# notes: Human Fab from a phage library, expressed in E. coli and purified on Ni-NTA; also called 17-Fab; Clone #1 (Fab)
# B2: IgG1 17 (antibody, V domains shown)
# VH: QVQLVESGGGLVKPGGSLRLSCAASGFTFSDYYMSWIRQAPGKGLEWVSYISSSGSTIYYADSVKGRFTISRDNAKNSLYLQMNSLRAEDTAVYYCAREVYYYDSSGYYTYYFDYWGQGTLVTVSS
# VL: DIQMTQSPSSLSASVGDRVTITCRASQSISSYLNWYQQKPGKAPKLLIYAASSLQSGVPSRFSGSGSGTDFTLTISSLQPEDAATYYCQQYDTFPLTFGGGTKVEIKR
# notes: also called hIgG1 17; IgG 17
# B3: Fab 3G12 (Fab, V domains shown)
# VH: QVQLVESGGGLVKPGGSLRLSCAASGFTFSDYYMSWIRQAPGKGLEWVSYISSSGSTIYYADSVKGRFTISRDNAKNSLYLQMNSLRAEDTAVYYCAREVYYYDSSGYYTYYFDYWGQGTLVTVSS
# VL: DIQMTQSPSSLSASVGDRVTITCRASQSISSYLNWYQQKPGKAPKLLIYAASSLQSGVPSRFSGSGSGTDFTLTISSLQPEDVAVYYCQQYYTSRITFGQGTKLEIKR
# notes: Same heavy chain as Fab 17, different light chain; Expressed in E. coli and purified on Ni-NTA; also called 3G12-Fab; Clone #2 (Fab)
# B4: IgG1 3G12 (antibody, V domains shown)
# VH: QVQLVESGGGLVKPGGSLRLSCAASGFTFSDYYMSWIRQAPGKGLEWVSYISSSGSTIYYADSVKGRFTISRDNAKNSLYLQMNSLRAEDTAVYYCAREVYYYDSSGYYTYYFDYWGQGTLVTVSS
# VL: DIQMTQSPSSLSASVGDRVTITCRASQSISSYLNWYQQKPGKAPKLLIYAASSLQSGVPSRFSGSGSGTDFTLTISSLQPEDVAVYYCQQYYTSRITFGQGTKLEIKR
# notes: Bivalent human IgG1 converted from Fab 3G12, expressed in Expi293 cells and purified on Protein A; also called hIgG1 3G12
# B5: scFv 17 (scFv)
# scFv: DIQMTQSPSSLSASVGDRVTITCRASQSISSYLNWYQQKPGKAPKLLIYAASSLQSGVPSRFSGSGSGTDFTLTISSLQPEDAATYYCQQYDTFPLTFGGGTKVEIKGGGGSGGGGSGGGGSQVQLVESGGGLVKPGGSLRLSCAASGFTFSDYYMSWIRQAPGKGLEWVSYISSSGSTIYYADSVKGRFTISRDNAKNSLYLQMNSLRAEDTAVYYCAREVYYYDSSGYYTYYFDYWGQGTLVTVSS
# notes: VL-(G4S)3-VH orientation; Expressed in E. coli; also called scFv format antibody 17; not shown: C-terminal FLAG tag used for detection; The protein was purified on Ni-NTA
# B6: scFv 3G12 (scFv)
# scFv: DIQMTQSPSSLSASVGDRVTITCRASQSISSYLNWYQQKPGKAPKLLIYAASSLQSGVPSRFSGSGSGTDFTLTISSLQPEDVAVYYCQQYYTSRITFGQGTKLEIKGGGGSGGGGSGGGGSQVQLVESGGGLVKPGGSLRLSCAASGFTFSDYYMSWIRQAPGKGLEWVSYISSSGSTIYYADSVKGRFTISRDNAKNSLYLQMNSLRAEDTAVYYCAREVYYYDSSGYYTYYFDYWGQGTLVTVSS
# notes: VL-(G4S)3-VH orientation; Expressed in E. coli; also called scFv format antibody 3G12; not shown: C-terminal FLAG tag used for detection; The protein was purified on Ni-NTA
# Tests used:
# BSA = target: T2, BSA (UniProt P02769 25-607); assay: ELISA on BSA
# T2 construct: Specificity control antigen in ELISA
# T2 sequence (P02769 25-607 limits assumed): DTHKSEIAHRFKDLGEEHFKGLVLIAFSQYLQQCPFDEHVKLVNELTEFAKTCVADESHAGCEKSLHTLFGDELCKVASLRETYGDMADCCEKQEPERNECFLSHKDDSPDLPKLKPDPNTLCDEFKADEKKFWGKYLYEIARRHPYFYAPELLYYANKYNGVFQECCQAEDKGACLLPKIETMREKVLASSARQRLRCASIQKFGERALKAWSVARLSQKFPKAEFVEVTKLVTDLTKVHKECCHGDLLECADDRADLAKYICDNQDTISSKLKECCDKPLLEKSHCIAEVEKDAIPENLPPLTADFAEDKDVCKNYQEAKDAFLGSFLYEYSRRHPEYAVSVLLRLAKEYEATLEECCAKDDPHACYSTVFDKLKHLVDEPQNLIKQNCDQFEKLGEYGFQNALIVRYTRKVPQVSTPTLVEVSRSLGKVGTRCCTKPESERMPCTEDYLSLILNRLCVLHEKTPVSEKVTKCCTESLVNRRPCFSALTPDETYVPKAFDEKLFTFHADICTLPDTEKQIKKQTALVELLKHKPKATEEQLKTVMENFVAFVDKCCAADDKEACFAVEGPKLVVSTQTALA
# [1] = target: T1, recombinant human ENPP1 extracellular …; assay: ELISA, ENPP1-His coated at 50 ng/well, anti-FLAG-HRP detection
# Procedure: (§1) The binding and specificity of Fab, scFv, and IgG1 to ENPP1 were analyzed by ELISA. Briefly, ENPP1-His protein was coated at 50 ng/well at 4° C. overnight and blocked with 5% milk for 2 hours at room temperature. After three times washing with PBST, they were incubated with 3-fold serially diluted Fab, scFv, or IgG1 for 1 hour at 37° C. For Fab and scFv detection via the FLAG tag present at the C-terminus, further incubation was performed with anti-FLAG M2-peroxidase (HRP) antibody (A8592, Sigma-Aldrich, St. Louis, MO, USA) for another 1 hour. For the IgG1, HRP-conjugated goat anti-human IgG1 Fc (Sigma-Aldrich, St. Louis, MO, USA) was used for detection.
# [2] = target: T1, recombinant human ENPP1 extracellular …; assay: BLItz biolayer interferometry, biotinylated ENPP1 on streptavidin biosensor
# Procedure: (§2) The affinity and avidity of the anti-hENPP1 antibody were detected by biolayer interferometry BLItz (ForteBio, Menlo Park, CA, USA). Briefly, DPBS was used to establish a baseline for 30 seconds, and streptavidin biosensor (ForteBio) was coated with 16.7 μg/mL recombinant ENPP1-Biotin for 2 minutes. […] Antigen-coated biosensors with PBS served as a reference control. The dissociation was monitored in DPBS for 4 minutes.
# [3] = target: T1, recombinant human ENPP1 extracellular …; assay: BLItz biolayer interferometry, biotinylated ENPP1 on a streptavidin biosensor
# Procedure: as §2
# [4] = target: T1, recombinant human ENPP1 extracellular …; assay: ELISA, ENPP1-His coated at 50 ng/well, anti-human IgG1 Fc-HRP detection
# Procedure: as §1
# [5] = target: T1, recombinant human ENPP1 extracellular …; assay: BLItz biolayer interferometry, biotinylated ENPP1 on streptavidin biosensor (avidity, bivalent IgG1)
# Procedure: as §2
binder,measurement,setting,value
B1,binding result,BSA,no binding
same,EC50,[1],13.9 nM
same,Kd,[2],61.4 nM
same,koff,[2],0.0044 s⁻¹
same,kon,[2],72000 M⁻¹ s⁻¹
same,koff,[3],0.00441 s⁻¹
same,kon,[3],71800 M⁻¹ s⁻¹
B2,EC50,[4],0.14 nM
same,Kd,[5],6.7 nM
same,koff,[5],0.0042 s⁻¹
same,kon,[5],630000 M⁻¹ s⁻¹
B3,binding result,BSA,no binding
same,EC50,[1],2.6 nM
same,Kd,[2],35.5 nM
same,koff,[2],0.0018 s⁻¹
same,kon,[2],52000 M⁻¹ s⁻¹
same,koff,[3],0.00184 s⁻¹
same,kon,[3],51900 M⁻¹ s⁻¹
B4,EC50,[4],0.24 nM
same,kon,[3],516000 M⁻¹ s⁻¹
same,Kd,[5],4.2 nM
same,koff,[5],0.0021 s⁻¹
same,kon,[5],520000 M⁻¹ s⁻¹
B5,EC50,[1],6.4 nM
B6,EC50,[1],52.2 nM
